Experiments:
[1] = target: T1, cell surface human PVR (CHO-K1/hPVR cells) (human, UniProt P15151 21-417); experiment: flow cytometry, CHO-K1 cells stably expressing human PVR; cell surface PVR
T1 construct: whole, on cells; also called cell surface PVR; CD155(PVR)
T1 sequence (looked up): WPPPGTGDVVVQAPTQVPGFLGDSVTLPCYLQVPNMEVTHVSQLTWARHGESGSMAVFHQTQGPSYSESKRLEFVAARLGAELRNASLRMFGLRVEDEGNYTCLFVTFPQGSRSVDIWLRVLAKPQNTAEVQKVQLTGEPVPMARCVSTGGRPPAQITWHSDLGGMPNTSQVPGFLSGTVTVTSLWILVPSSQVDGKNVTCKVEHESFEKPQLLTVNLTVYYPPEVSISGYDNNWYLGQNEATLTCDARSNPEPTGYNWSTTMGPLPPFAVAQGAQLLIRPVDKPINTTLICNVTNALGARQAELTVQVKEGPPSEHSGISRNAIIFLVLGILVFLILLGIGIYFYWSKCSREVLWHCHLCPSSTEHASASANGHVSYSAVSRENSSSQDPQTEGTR

[2] = target: T2, recombinant human CD113 (PVRL3) (human, UniProt Q9NQS3 58-404); experiment: BLI (Octet-Red96), tagged rhCD113 (PVRL3) immobilised on biosensor
T2 construct: also called rhCD113 (PVRL3); Nectin-3
T2 sequence (Q9NQS3 58-404 limits assumed): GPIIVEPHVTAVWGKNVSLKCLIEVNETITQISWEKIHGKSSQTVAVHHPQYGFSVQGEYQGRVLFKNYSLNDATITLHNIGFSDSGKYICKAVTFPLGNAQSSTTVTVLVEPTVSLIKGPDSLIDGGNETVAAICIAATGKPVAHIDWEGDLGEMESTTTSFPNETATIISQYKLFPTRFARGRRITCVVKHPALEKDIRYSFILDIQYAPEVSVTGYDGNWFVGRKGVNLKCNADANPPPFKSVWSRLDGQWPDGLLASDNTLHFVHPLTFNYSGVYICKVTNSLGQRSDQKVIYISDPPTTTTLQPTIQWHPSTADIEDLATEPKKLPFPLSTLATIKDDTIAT
Method: Bio-Layer interferometry-based affinity testing was used to determine the on-rates (Ka), off-rates (Kd) and binding affinities (KD) of the TIGIT-Fc-LIGHT chimeric protein to intended binding targets, using histidine- or biotin-tagged versions of the human recombinant proteins (PVR, HVEM, LTβR, PVRL2, PVRL3, and Nectin-4; purchased from Acro Biosystems or Sino Biological). Commercially available or internally produced single-sided fusion protein controls (TIGIT-Fc and Fc-LIGHT) were also tested in parallel. Targets were immobilized at a concentration of 3 μg/mL in Kinetics buffer (PBS/0.1% Tween-20/1% BSA; pH7.0) to anti-pentaHis or streptavidin coated biosensors. Direct binding of fusion proteins to recombinant target proteins was performed on an Octet-Red96 BLI instrument, using association and dissociation times of 90 and 120 seconds, respectively.

[3] = target: T3, anti-human LIGHT-biotin antibody (MSD detection); experiment: MSD sandwich 'Dual - Antibody': capture anti-TIGIT, TIGIT-Fc-LIGHT titrated, detection anti-LIGHT (same curve as the capture row)
T3 construct: also called anti-LIGHT antibody

B1: human TIGIT-Fc-LIGHT chimeric protein (Fc fusion)
chain: MMTGTIETTGNISAEKGGSIILQCHLSSTTAQVTQVNWEQQDQLLAICNADLGWHISPSFKDRVAPGPGLGLTLQSLTVNDTGEYFCIYHTYPDGTYTGRIFLEVLESSVAEHGARFQIPSKYGPPCPPCPAPEFLGGPSVFLFPPKPKDQLMISRTPEVTCVVVDVSQEDPEVQFNWYVDGVEVHNAKTKPREEQFNSTYRVVSVLTVLHQDWLSGKEYKCKVSSKGLPSSIEKTISNATGQPREPQVYTLPPSQEEMTKNQVSLTCLVKGFYPSDIAVEWESNGQPENNYKTTPPVLDSDGSFFLYSRLTVDKSRWQEGNVFSCSVLHEALHNHYTQKSLSLSLGKIEGRMDLQLHWRLGEMVTRLPDGPAGSWEQLIQERRSHEVNPAAHLTGANSSLTGSGGPLLWETQLGLAFLRGLSYHDGALVVTKAGYYYIYSKVQLGGVGCPLGLASTITHGLYKRTPRYPEELELLVSQQSPCGRATSSSRVWWDSSFLGGVVHLEAGEKVVVRVLDERLVRLRDGTRSYFGAFMV
notes: Said to exist as a hexamer (dimer of trimers); Glycosylated; also called hTIGIT-Fc-LIGHT; TIGIT-Fc(IgG4)-LIGHT
EC50 [1]: 35.4 nM
koff [2]: 0.00126 s⁻¹
kon [2]: 130000 M⁻¹ s⁻¹
EC50 [3]: 1.15 nM

From US20240016892A1 (SHATTUCK LABS, published 2024)
